From CN116333149A (UNIV HENAN URBAN CONSTRUCTION, dated 2023) come the findings set out here.

The assay addresses PCSK9抗原 (前蛋白转化酶枯草溶菌素9, Proprotein convertase subtilisin/kexin type 9). The assay can be described thus: SPR, Biacore T200, PCSK9 coupled to CM5 chip (~790 RU), VHH as analyte 218-13.5 nM.

B1: PCSK9单域抗体VHHH12 (VHH)
VHH: QVQLQESGGGLVQAGGSLRLSCAASGRTFSDYAVGWFRQAPGKEREFVAGIGWSGGQTTYADSVKGRFTISRDNAKDTVYLQMNSLKPEDTAVYVCAASFLVIPGTVKTRYDSWGQGTQVTVPA
notes: Alpaca VHH expressed from pMECS in E. coli HB2151 and purified on a Ni column; also called 抗PCSK9单域抗体VHHH12; PCSK9单域抗体蛋白VHHH12; not shown: C-terminal tags from the pMECS vector (HA tag, detected with anti-HA antibody)
Molecule B1 had a Kd of 2.63 nM, a dissociation rate constant (koff) of 0.000584 s⁻¹ and a kon of 222000 M⁻¹ s⁻¹.
